First the molecules themselves.
T1: recombinant purified human RGM A (R&D Systems Cat#2459-RM) (human) (UniProt Q96B86)
T1 sequence: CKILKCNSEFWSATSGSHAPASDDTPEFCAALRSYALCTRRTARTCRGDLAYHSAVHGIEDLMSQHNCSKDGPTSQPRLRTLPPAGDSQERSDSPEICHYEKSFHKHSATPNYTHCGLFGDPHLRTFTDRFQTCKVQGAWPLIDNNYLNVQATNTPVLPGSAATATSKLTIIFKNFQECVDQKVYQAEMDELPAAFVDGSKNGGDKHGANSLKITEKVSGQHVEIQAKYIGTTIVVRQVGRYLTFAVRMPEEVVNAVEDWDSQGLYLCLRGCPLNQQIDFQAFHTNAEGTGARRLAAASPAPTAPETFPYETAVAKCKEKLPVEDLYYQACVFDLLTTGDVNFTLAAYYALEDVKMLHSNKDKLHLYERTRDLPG

B1: rat anti-human RGM A monoclonal antibody 8D1 (antibody, V domains shown)
VH: EVQLQQSGPELVKPGTSVKMSCKTSGYTFTSYVMHWVKQKPGQGLEWIGYIIPYNDNTKYNEKFKGKATLTSDKSSSTAYMELSSLTSEDSAVYYCARRNEYYGSSFFDYWGQGTTLTVSS
VL: DIQMTQSPASLSASLEEIVTITCQASQDIDNYLAWYHQKPGKSPRLLIYGATNLADGVPSRFSGSRSGTQFSLKINRLQIEDLGIYYCLQGYIPPRTFGGGTKLELKR
B2: rat anti-human RGM A monoclonal antibody 5F9 (antibody, V domains shown)
VH: EVQLVESGGGLVQPGSSLKLSCVASGFTFSNYGMNWIRQAPKKGLEWIGMIYYDSSEKHYADSVKGRFTISRDNSKNTLYLEMNSLRSEDTAIYYCAKGTTPDYWGQGVMVTVSS
VL: DVVLTQTPVSLSVTLGDQASMSCRSSQSLEYSDGYTFLEWFLQKPGQSPQLLIYEVSNRFSGVPDRFIGSGSGTDFTLKISRVEPEDLGVYYCFQATHDPLTFGSGTKLEIKR
B3: h5F9.1 (antibody, human IgG1, V domains shown)
VH: EVQLVESGGGVVQPGRSLRLSCAASGFTFSNYGMNWVRQAPGKGLEWVAMIYYDSSEKHYADSVKGRFTISRDNSKNTLYLQMNSLRAEDTAVYYCARGTTPDYWGQGTMVTVSS
VL: DIVMTQTPLSLSVTPGQPASISCRSSQSLEYSDGYTFLEWYLQKPGQSPQLLIYEVSNRFSGVPDRFSGSGSGTDFTLKISRVEAEDVGVYYCFQATHDPLTFGQGTKLEIKR
B4: h5F9.9 (antibody, human IgG1, V domains shown)
VH: B3 VH
VL: B3 VL with I2V, T7S, S12P, P15L
B5: h5F9.11 (antibody, human IgG1, V domains shown)
VH: B3 VH with V11L, R16G, A49S, R98K
VL: B3 VL with I2V, T7S, S12P, P15L
B6: h5F9.7 (antibody, human IgG1, V domains shown)
VH: B3 VH with V11L, R16G, A49S, R98K
VL: B3 VL with I2V, T7S, S12P, P15L, Y41F, L42Q, K44R, Q50R, L51R
B7: h5F9.3 (antibody, human IgG1, V domains shown)
VH: B3 VH with V11L, R16G, A49S, R98K
VL: B3 VL
B8: h5F9.5 (antibody, human IgG1, V domains shown)
VH: B3 VH
VL: B3 VL with I2V, T7S, S12P, P15L, Y41F, L42Q, K44R, Q50R, L51R
B9: h5F9.6 (antibody, human IgG1, V domains shown)
VH: B3 VH with V37I, V48I, A49G, R98K
VL: B3 VL with I2V, T7S, S12P, P15L, Y41F, L42Q, K44R, Q50R, L51R
B10: h5F9.2 (antibody, human IgG1, V domains shown)
VH: B3 VH with V37I, V48I, A49G, R98K
VL: B3 VL
B11: h5F9.22 (antibody, human IgG1, V domains shown)
VH: B3 VH with V37I, V48I, A49G, R98K
VL: B3 VL with I2V, M4L, T7S, S12P, P15L
B12: h5F9.26 (antibody, human IgG1, V domains shown)
VH: B3 VH with V11L, R16G, V37I, V48I, A49G, R98K
VL: B3 VL with I2V, M4L, T7S, S12P, P15L
B13: h5F9.4 (antibody, human IgG1, V domains shown)
VH: B3 VH with V11L, R16G, V37I, V48I, A49G, R98K
VL: B3 VL
B14: h5F9.8 (antibody, human IgG1, V domains shown)
VH: B3 VH with V11L, R16G, V37I, V48I, A49G, R98K
VL: B3 VL with I2V, T7S, S12P, P15L, Y41F, L42Q, K44R, Q50R, L51R
B15: h5F9.20 (antibody, human IgG1, V domains shown)
VH: B3 VH with V37I, V48I, A49G, R98K
VL: B3 VL with I2V, M4L, T7S, S12P, P15L, Y41F, L42Q, K44R, Q50R, L51R
B16: h5F9.12 (antibody, human IgG1, V domains shown)
VH: B3 VH with V11L, R16G, V37I, V48I, A49G, R98K
VL: B3 VL with I2V, T7S, S12P, P15L
B17: h5F9.10 (antibody, human IgG1, V domains shown)
VH: B3 VH with V37I, V48I, A49G, R98K
VL: B3 VL with I2V, T7S, S12P, P15L

Substitutions are numbered along the chain they refer to.

One test has as its target rat RGM A expressed on BAF3 cells (rat). The test is described as follows: FACS on BAF3-ratRGMA stable cell line, unlabelled antibody, anti-rat IgG PE; unstained cells 4.71.
The molecule B1 registered a Median, FL2-H of 5.37.
As to B2, the Median, FL2-H turned out to be 29.6.

The target in a further test is T1, recombinant purified human RGM A (R&D Systems Cat#2459-RM) (human). The test is described as follows: direct ELISA: plate coated with hRGM A 2 µg/mL, biotinylated antibody in 1:5 dilutions, streptavidin-HRP, TMB, OD 450. Background: An ELISA detects its analyte on a solid surface through an enzyme-linked reagent.
Take B1: the concentration for a half-maximal effect (EC50 (read off the curve)) (usually the concentration needed to bring the measured effect to its halfway point) came to 0.2 µg/mL.
Same read-out and setting: for B2 the value was 0.08 µg/mL.

The next test shares this target. Briefly: competition ELISA on coated hRGMA; competitor: biotinylated chimeric 5F9.
B3: the IC50 (usually the concentration needed to halve the response being measured) was > 10 µg/mL.
In the case of B4, the IC50 was > 10 µg/mL.
Same read-out and setting: next, B5: > 10 µg/mL; B6: > 10 µg/mL; B7: > 10 µg/mL.
Still for that read-out and setting: for B8 the value was > 10 µg/mL.
On the same count and under the same terms, for B9 the value was > 10 µg/mL.
As to B10, the half-maximal inhibitory concentration (IC50) is > 10 µg/mL.
With B11, the half-inhibitory concentration (IC50) is > 2 µg/mL.
B12: the IC50 was > 2 µg/mL.
Consider B13, for which the half-maximal inhibitory concentration (IC50) was > 10 µg/mL.
With B14, the IC50 is > 10 µg/mL.
Take B15: the IC50 is > 2 µg/mL.
Same read-out and setting: for B16 the value was > 10 µg/mL; for B17, > 10 µg/mL.

(Values after US20210277097A1.)
